Results from patent US20250034549.

Assays:
[1] = biological target: v2.4 BE-VLP gag-ABE8e fusion
[2] = biological target: v2.2 BE-VLP gag-ABE8e fusion
[3] = biological target: v2.3 BE-VLP gag-ABE8e fusion
[4] = biological target: v2.1 BE-VLP gag-ABE8e fusion

B1: MMLV protease (protein)
chain: TLDDQGGQGQEPPPEPRITLKVGGQPVTFLVDTGAQHSVLTQNPGPLSDKSAWVQGATGGKRYRWTTDRKVHLATGKVTHSFLHVPDCPYPLLGRDLLTKLKAQIHFEGSGAQVMGPMGQPLQVL
- fraction of cleaved ABE8e versus full-length gag-ABE8e present in purified BE-VLPs (western blot) [1]: the v2.4 linker is cleaved more efficiently than the v2.1 and v2.2 linkers, but less efficiently than the v2.3 linker
- fraction of cleaved ABE8e versus full-length gag-ABE8e present in purified BE-VLPs (western blot) [2]: the v2.4 linker is cleaved more efficiently than the v2.1 and v2.2 linkers, but less efficiently than the v2.3 linker
- fraction of cleaved ABE8e versus full-length gag-ABE8e present in purified BE-VLPs (western blot) [3]: the v2.4 linker is cleaved more efficiently than the v2.1 and v2.2 linkers, but less efficiently than the v2.3 linker
- fraction of cleaved ABE8e versus full-length gag-ABE8e present in purified BE-VLPs (western blot) [4]: the v2.4 linker is cleaved more efficiently than the v2.1 and v2.2 linkers, but less efficiently than the v2.3 linker
